Results on two molecules are retold here after patent publication US20100240872A1 (FORERUNNER PHARMA RESEARCH, published 2010).

The target of assay [1] is T1, Muc17ct_mIgG2aFc (soluble human Muc17ct / mouse IgG2a Fc fusion protein) (human). The experiment in a line: ELISA screening of hybridoma supernatant on immobilized Muc17ct_mIgG2aFc.
Assay [2] deals with T2, GST_Muc17ct_del3 (4115Thr-4243Gly) (human, UniProt Q685J3 4115-4243).
T2 construct: not shown: GST encoded by vector pGEX4T-3 (Takara Bio)
The experiment in a line: ELISA, GST fusion immobilized at 1 µg/mL. (In general: An ELISA detects its analyte on a solid surface through an enzyme-linked reagent.)

The target in assay [3] is T3, GST_Muc17ct_del2 (4244Ser-4390Leu) (human, UniProt Q685J3 4244-4390).
T3 construct: not shown: GST encoded by vector pGEX4T-3 (Takara Bio)
The experiment in a line: ELISA, GST fusion immobilized at 1 µg/mL.

Assay [4] addresses T1, Muc17ct_mIgG2aFc (soluble human Muc17ct …). The experiment in a line: ELISA, Muc17ct_mIgG2aFc coated at 1 µg/mL, anti-human kappa chain detection.
Method: Muc17ct_mIgG2aFc protein was diluted with coating buffer (0.1 mol/L NaHCO₃ (pH 9.6), 0.02% (w/v) NaN₃) to give 1 μg/mL of Muc17ct_mIgG2aFc protein, and added to an immunoplate for overnight at 4° C. for coating. The plate was blocked with dilution buffer (50 mM Tris-HCl (pH 8.1), 1 mM MgCl₂, 150 mM NaCl, 0.05% (v/v) Tween20, 0.02% (w/v) NaN₃, 1% (w/v) BSA); then the anti-Muc17 antibody was added for 1 hour at room temperature. After washing with rinse buffer (0.05% (v/v) Tween20, PBS), an alkali phosphatase-labeled anti-human κ chain antibody (Sigma, CAT#A3813) was added for 1 hour at room temperature. After washing with rinse buffer, SIGMA104 (Sigma) diluted at 1 mg/mL in the substrate buffer (50 mM NaHCO₃ (pH 9.8), 10 mM MgCl₂) was added. After color development for 1 hour at room temperature, the absorbance (405 nm, reference 655 nm) was measured using a Benchmark Plus (BIO-RAD Laboratories, Inc.).
The target of assay [5] is Mucin 17 (Muc17) on AsPc1 pancreatic cancer cells (human, UniProt Q685J3 26-4493). Kind of assay: flow cytometry on AsPc1 cells, FITC anti-human IgG detection.
Method: Binding of the antibodies to a pancreatic cancer cell line AsPc1 was evaluated by flow cytometry. The cells were suspended in FACS buffer (1% FBS/PBS) at 5×10⁵ cells/mL and dispensed into Multiscreen-HV Filter Plates (Millipore), and the supernatant was removed by centrifugation. Anti-Muc17 antibody diluted to a suitable concentration was added and reacted for 30 minutes on ice. The cells were washed once with FACS buffer. FITC-labeled anti-human IgG antibody was added, and reacted for 30 minutes on ice. Then the supernatant was removed by centrifugation, the cell were suspended in 100 μL FACS buffer and applied to flow cytometry. Flow cytometry was run on FACS Calibur (Becton, Dickinson and Company). The viable cell population was gated with a forward scatter and side scatter histogram.

T1 sequence (chain, as listed by the source limits assumed): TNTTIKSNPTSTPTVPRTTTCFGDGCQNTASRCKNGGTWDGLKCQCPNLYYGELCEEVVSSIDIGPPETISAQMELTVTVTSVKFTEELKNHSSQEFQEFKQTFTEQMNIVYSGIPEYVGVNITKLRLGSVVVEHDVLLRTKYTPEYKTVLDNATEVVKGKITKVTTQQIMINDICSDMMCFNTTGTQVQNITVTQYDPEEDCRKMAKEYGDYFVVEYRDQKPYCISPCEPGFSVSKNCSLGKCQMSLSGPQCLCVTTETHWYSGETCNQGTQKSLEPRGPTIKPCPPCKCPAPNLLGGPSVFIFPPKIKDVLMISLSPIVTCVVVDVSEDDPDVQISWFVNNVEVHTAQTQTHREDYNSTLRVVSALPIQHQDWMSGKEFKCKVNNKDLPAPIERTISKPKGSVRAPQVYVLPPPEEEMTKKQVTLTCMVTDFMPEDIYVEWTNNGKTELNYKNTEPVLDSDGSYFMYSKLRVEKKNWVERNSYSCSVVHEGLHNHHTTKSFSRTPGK

B1: MQ155 (antibody, IgG1, V domains shown)
VH: QVQLQQPGAELVRPGASVKLSCKASGYTFTTYWMNWVKQRPEQGLEWIGRIDPYDSETHYNQKFKDKAILTVDKSSSTAYMQLSSLTSEDSAVYYCARGPYYGTNPWFPYWGQGTLVTVSS
VL: DVQITQSPSYLAASPGETITINCRASKSISKYLAWYQEKPGKTNKLLIYSGSTLQSGIPSRFSGSGSGTDFTLTISSLEPEDFAMYYCQQHHEYPYTFGGGTKLEIK
notes: Mouse monoclonal from hybridoma, IgG1 kappa; also called anti-Muc17 antibody MQ155
On to B1, for which the binding result in assay [1] is reported as “binds”; in assay [2], “no binding (tested: 3 µg/mL)”; in assay [3], “no binding (tested: 3 µg/mL)”.

B2: chi.MQ155 (anti-Muc17 mouse-human chimeric antibody MQ155) (antibody, human IgG1, kappa, V domains shown)
VH: B1 VH
VL: DVQITQSPSYLAASPGETITINCRASKSISKYLAWYQEKPGKTNKLLIYSGSTLQSGIPSRFSGSGSGTDFTLTISSLEPEDFAMYYCQQHHEYPYTFGGGTKLEIKR
notes: Human IgG1 / kappa constant regions; also called chi.MQ155(DG); chi.MQ155(FTKO)
Consider B2, for which the binding result in assay [4] and in assay [5] was “binds” each time.
